T1: Sub p53-1
T1 chain: STSRHKKLMFKTE

T2: Sub p53-2
T2 chain: SHLKSKKGQSTSR

B1: recombinant CBP (protein)
chain: QNRYHFCEKCFTEIQGENVTLGDDPSQPQTTISKDQFEKKKNDTLDPEPFVDCKECGRKMHQICVLHYDIIWPSGFVCDNCLKKTGRPRKENKFSAKRLQTTRLGNHLEDRVNKFLRRQNHPEAGEVFVRVVASSDKTVEVKPGMKSRFVDSGEMSESFPYRTKALFAFEEIDGVDVCFFGMHVQEYGSDCPPPNTRRVYISYLDSIHFFRPRCLRTAVYHEILIGYLEYVKKLGYVTGHIWACPPSEGDDYIFHCHPPDQKIPKPKRLQEWYKKMLDKAFAERIIHDYKDIFKQATEDRLTSAKELPYFEGDFWPNVLEESIKELEQEEEERKKEESTAASETTEGSQGDSKNAKKKNNKKTNKNKSSISRANKKKPSMPNVSNDLSQKLYATMEKHKEVFFVIHLHAGPVINTLPPIVDPDPLLSCDLMDGRDAFLTLARDKHWEFSSLRRSKWSTLCMLVELHTQGQDRFVYTCNEC

Experiments:
[1] = tested on: sub p53-1 and sub p53-2 peptides; experiment: ELISA system for measuring the deacetylase activity (liquid and solid phase); type: biochemical, human; details: 0 to 10 μg/ml; liquid and solid phases; depending on the concentration; FIGS. 11 and 12
Description: Two peptide substrates “Sub Ac p53-1” (SEQ ID NO: 17/Bio-STSRHKK(Ac)LMFKTE and “Sub Ac p53-2” (SEQ ID NO: 18/Bio-SHLKSKK (Ac) GQSTSR) in which an acetyl group was introduced into the ε amino group on the 373rd and 382nd lysine residues of human p53, were prepared by a peptide synthesizer. An amino acid in a peptide is shown by the one-letter code and “Bio” at the amino ends means biotin. K(Ac) indicates an acetylated lysine residue. Ninety percent or higher purity of the synthesized peptides was confirmed by HPLC. “Sub Ac p53-1” and “Sub Ac p53-2” were composed of amino acid residues 376 to 388 and 367 to 379, of human p53, respectively.
Two peptides substrate were dissolved in PBS to 10 μg/ml. 50 μl of each peptide solution were added to each well on a microtiter plate for ELISA, and sensitized at 4° C. overnight. […]
The synthesized peptide substrates and the recombinant deacetylase were reacted in the liquid phase, and the enzyme activity was measured by ELISA system using a microtiter plate. […] 100 μl of 1.5 N phosphate solution were added thereto to terminate the coloring reaction, and absorbance at 450 nm was measured using a microtiter plate reader. • Solid Phase Analysis System (Refer to FIG. 4) […]

Sub p53-1 = target: T1, Sub p53-1
Sub p53-2 = target: T2, Sub p53-2
[2] = tested on: sub p53-1 and sub p53-2 peptides; experiment: ELISA system for measuring the acetyltransferase activity (liquid and solid phase); type: biochemical, human; details: 0 to 10 μg/ml; liquid and solid phases; depending on the concentration; FIGS. 9 and 10
Description: Two peptide substrates “Sub p53-1” (SEQ ID NO: 13/Bio-STSRHKKLMFKTE) and “Sub p53-2” (SEQ ID NO: 14/Bio-SHLKSKKGQSTSR) comprising the 373rd and 382nd lysine residues of the amino acid sequence of human p53, respectively, reported as an acetylation sites of acetyltransferase, were prepared by a peptide synthesizer. Amino acids in the peptide are shown in one-letter codes, and “Bio” at the amino ends means biotin. Ninety percent or higher purity was confirmed by HPLC. “Sub p53-1” and “Sub-p53-2” were composed of amino acids 376 to 388 and amino acids 367 to 379, respectively. […] The amplified PCR product was subcloned to pGEX, expressed as a fusion with GST, and purified (GST-p53 Cter). • (2) Preparation of a Peptide Substrate, “GST-p53 Cter” and a Streptoavidin Sensitized Plate […]
The synthesized peptide substrates and a recombinant acetyltransferase were reacted in the liquid phase, and the enzyme activity was measured by the ELISA system using a microtiter plate. […] 100 μl of 1.5 N phosphate solution were added to terminate the coloring reaction, and absorbance at 450 nm was measured using a microtiter plate reader. • Solid Phase Analysis System (Refer to FIG. 2) […]

Row | Molecule | deacetylase activities in sub p53-1 and sub p53-2 peptides [1] | acetyltransferase activity (ELISA with anti-acetylated peptide antibody, absorbance at 450 nm; liquid and solid phase) (Sub p53-1) | acetyltransferase activity (ELISA with anti-acetylated peptide antibody, absorbance at 450 nm; liquid and solid phase) (Sub p53-2) | acetyltransferase activities to sub p53-1 and sub p53-2 peptides [2]
1 | recombinant HDAC1: recombinant deacetylase HDAC1/RPD3 (full length) purified from E. coli | detected |  |  | 
2 | B1 |  | the acetyltransferase activities to "subp53-1" and "sub p53-2" peptides depending on the concentration of CBP were detected | the acetyltransferase activities to "subp53-1" and "sub p53-2" peptides depending on the concentration of CBP were detected | detected

Source: patent US6884597B1, “Method for detecting acetyltransferase and deacetylase activities and method for screening inhibitors or enhancers of these enzymes” (Medical & Biological Laboratories, Co., Ltd., priority 1998, dated 2005)
